# Measured values: patent US8673579B2, “Peptide probes for diagnostics and therapeutics” (priority 2006, dated 2014)
# pyrene = pyrene fluorescent label
# How the values were obtained:
# [1] = Circular dichroism secondary structure calculation; assay type: physicochemical; conditions: circular dichroism in 30% TFE/Tris, CDPRO deconvolution
# Aβ40 = Aβ40 (Homo sapiens, UniProt P05067); assay: Pyrene-labeled peptide probe fluorescence with structural forms of Aβ40; assay type: binding
# Excerpt: (§1) A peptide probe specific for Aβ (SEQ ID NO:36) is used to detect specific structural forms of Aβ40 and Aβ42. The peptide probe is labeled at each terminus with pyrene. The peptide probe is contacted with different samples comprising Aβ42 oligomers, Aβ40 oligomers, and Aβ40 monomers.
# (§2) Interaction between the peptide probe and sample is detected by excitation at 350 nm and scanning fluorescence from 360 to 600 nm. […] FIG. 11A (fibers and monomer) & 11B (oligomers).
# Aβ plaques [2] = molecular target: T1, Aβ plaques (Homo sapiens, UniProt P05067); assay: In vitro staining of brain sections from hAPP751SL transgenic mice; assay type: binding
# T1 sequence (P05067 672-713 limits assumed): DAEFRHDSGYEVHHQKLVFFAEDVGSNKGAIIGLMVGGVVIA
# Description: The following illustrates the ability of peptide probes to target Aβ plaques (e.g., insoluble self-aggregates of Aβ protein associated with Alzheimer's disease) both in vitro and in vivo. A peptide probe specific for Aβ (SEQ ID NO:36) and labeled at each terminus with pyrene is used.
# In vitro studies are carried out on brain sections from transgenic mice over-expressing human APP751 with London and Swedish mutations (hAPP751SL). This protein is an Aβ mutant that forms neuritic plaques in the transgenic mice. Tissue from non-transgenic littermate mice served as control tissue.
# Two different types of tissue slices are evaluated: cyro-cut (frozen and sliced) and paraffin embedded and sliced. The peptide probe is incubated on the brain slices and binding of the peptide probe to the brain, and to the amyloid deposits/plaques in particular, are qualitatively evaluated. For reference purposes, consecutive slices are immunohistochemically stained with an anti-Aβ antibody, the 6E10 antibody or Thioflavin S. The use of anti-Aβ controls confirms the specificity of the staining on neuritic plaques.
# Images are recorded on a Nikon E800 microscope with a mounted PixelFly camera. For tiled image recordings, the microscope is equipped with a StagePro software controlled automatic table. Images of peptide probe staining and antibody and ThioflavinS staining, respectively, are overlaid in Adobe Photo Shop software
# In the latter samples, cells from the neuronal layer of the hippocampus are marked, as are brain tissue around plaques in the cortex. Thus, the quality of the stain may be better on paraffin sections.
# Aβ plaques [3] = molecular target: T1, Aβ plaques
# Aβ42 = Aβ42 (Homo sapiens, UniProt P05067); assay: Pyrene-labeled peptide probe fluorescence with structural forms of Aβ42; assay type: binding
# Sequence of Aβ42 (P05067 672-713): as the sequence (P05067 672-713 limits assumed) above
# Excerpt: as §1, §2
# [4] = test system: Aβ40 and Aβ42 in human cerebrospinal fluid (CSF); assay: Detection of Aβ in human CSF samples (excimer/monomer fluorescence ratio); assay type: binding; conditions: 40 μL CSF, 2 μM dipyrene-labeled probe, 1 hour; ratio 430-530 nm over 370-385 nm
# Excerpt: A peptide probe specific for Aβ (SEQ ID NO:36) is used to detect Aβ40 and Aβ42 in samples of human cerebrospinal fluid (CSF) obtained from Alzheimer's patients and from age-matched healthy patients. […] The data is presented in FIG. 12 as the ratio of the […] region (430-530 nm) over the monomeric region (370-385 nm). […] FIG. 12A presents the data for each patient, while FIG. 12B presents the average data for each patient group.
# [5] = test system: Aβ40 and Aβ42 in human serum; assay: Detection of Aβ in human serum with immobilized biotinylated peptide probe; assay type: binding; conditions: 200 μL serum; biotinylated probe on streptavidin magnetic beads, then 2 μM dipyrene-labeled probe 3-5 hours
# Description: Biotinylated peptide probe is immobilized to Dynal magnetic beads coated with streptavidin. These beads are incubated directly with the serum samples for 1 hour, then the magnetic beads and the captured material are pulled down to remove the serum samples.
# PrP^Sc [6] = molecular target: T2, PrP^Sc (Ovis aries, UniProt P23907)
# T2 sequence (P23907 25-233 limits assumed): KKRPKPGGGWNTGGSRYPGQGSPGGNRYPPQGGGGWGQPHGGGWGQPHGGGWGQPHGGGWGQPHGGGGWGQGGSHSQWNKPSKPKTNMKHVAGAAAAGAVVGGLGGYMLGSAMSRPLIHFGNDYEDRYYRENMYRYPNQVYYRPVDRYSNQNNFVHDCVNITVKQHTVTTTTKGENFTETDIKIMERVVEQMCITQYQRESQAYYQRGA
# PrP^Sc [7] = molecular target: T2, PrP^Sc; remark: listed apart in the source
# PrP^Sc [8] = molecular target: T3, PrP^Sc (Mesocricetus auratus, UniProt P04273)
# T3 sequence (P04273 23-231 limits assumed): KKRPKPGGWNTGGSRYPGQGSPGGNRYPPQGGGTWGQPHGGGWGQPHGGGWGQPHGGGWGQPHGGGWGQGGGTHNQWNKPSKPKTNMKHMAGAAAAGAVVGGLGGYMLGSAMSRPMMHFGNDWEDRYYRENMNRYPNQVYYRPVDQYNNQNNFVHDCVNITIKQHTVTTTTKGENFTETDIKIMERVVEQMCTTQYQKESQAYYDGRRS
# PrP^Sc [9] = molecular target: T3, PrP^Sc; remark: listed apart in the source
# [10] = general statement in description
# [11] = probe labeled at each terminus with pyrene, excitation 350 nm, scan 360 to 600 nm
# [12] = intranasal labeled peptide probe
# Sequence of Aβ40 (P05067 672-711): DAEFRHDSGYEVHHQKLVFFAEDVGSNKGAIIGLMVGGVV
substance,measurement,setting,value
Aβ40 fibers: fibers of Aβ40 amyloid beta protein used as sample,turn/unordered structure,[1],35.9%
same,α helix structure,[1],5.6%
same,β strand (sheet) structure,[1],58.4%
Aβ42 fibers: fibers of Aβ42 amyloid beta protein used as sample,turn/unordered structure,[1],27.2%
same,α helix structure,[1],12.6%
same,β strand (sheet) structure,[1],60.2%
"KLVFFAEDVGSNKGAIIGLM [SEQ ID NO:36, peptide probe specific for Aβ: Aβ 17-35 with additional N-terminal lysine]",specific reaction with Aβ40 monomers,Aβ40; [10],do not specifically react
same,specific reaction with Aβ40 oligomers,Aβ40; [10],specifically react
same,dose-dependent reaction with Aβ40 fibers,Aβ40; [11],reacts
same,dose-dependent reaction with Aβ40 monomer,Aβ40; [11],dose not react
same,dose-dependent reaction with Aβ40 oligomers,Aβ40; [11],reacts
same,turn/unordered structure,[1],55.5%
same,α helix structure,[1],19.4%
same,β strand (sheet) structure,[1],25.1%
same,staining of human amyloid peptide bearing blood vessels,Aβ plaques [2]; hAPP751SL transgenic brain slices,specifically stained
same,"plaque specificity of staining, paraffin versus cryo-cut slices",Aβ plaques [2]; overlay with antibody staining of consecutive slices,staining on paraffin slices is more specific to plaques than staining on cryo-cut slices
same,staining of plaques on brain slices,"Aβ plaques [2]; paraffin or cryo-cut slices, dipyrene-labeled probe",plaque-specific staining is apparent
same,binding in brain of hAPP751SL transgenic mice,Aβ plaques [3]; [12],binds to the amyloid and agglomerates outside the blood vessel in the brain
same,distribution and binding in brain of nontransgenic mice,Aβ plaques [3]; [12],"reaches the olfactory bulb, but does not bind to a specifiable morphological structure"
same,crossing of the blood-brain barrier (BBB),"Aβ plaques [3]; mouse, in vivo",crosses the blood-brain barrier
same,specific reaction with Aβ42 monomers,Aβ42; [10],do not specifically react
same,specific reaction with Aβ42 oligomers,Aβ42; [10],specifically react
same,dose-dependent reaction with Aβ42 fibers,Aβ42; [11],reacts
same,dose-dependent reaction with Aβ42 oligomers,Aβ42; [11],reacts
same,stratification of Alzheimer's patients from age-matched healthy patients,[4],able to stratify
same,stratification of Alzheimer's patients from age-matched healthy patients,[5],able to stratify
VVAGAAAAGAVHKMNTKPKMKHVAGAAAAGAVV [SEQ ID NO:43],effect of sample sonication on signal-to-noise,PrP^Sc [6],improved the signal-to-noise ration
same,reactivity with PrP^Sc in sera from infected sheep,PrP^Sc [6],reacted
same,reactivity with sera from normal sheep,PrP^Sc [6],did not react
same,sensitivity,PrP^Sc [6],100%
same,specificity,PrP^Sc [6],100%
same,relative reactivity with sheep blood components,PrP^Sc [7],buffy coat>serum>plasma
same,reactivity after sonication of samples,PrP^Sc [8],increased reactivity
same,reactivity with smaller versus larger PrP^Sc aggregates,PrP^Sc [9],reacts with smaller PrP^Sc aggregates over larger PrP^Sc aggregates
labeled peptide probe: peptide probe specific for Aβ (SEQ ID NO:36) labeled at each terminus with pyrene (pyrene-KLVFFAEDVGSNKGAIIGLM-pyrene),turn/unordered structure,[1],54.1%
same,α helix structure,[1],18.3%
same,β strand (sheet) structure,[1],27.6%
"oligomers of Aβ42: sample of oligomers of Aβ42 including dimers, trimers, tetramers, hexamers and 12-mers",turn/unordered structure,[1],45.4%
same,β strand (sheet) structure,[1],52.7%
